Experimental data from patent US20160009819A1.
Positions count from the first letter of the chain named.

T1: human [1-157]-mouse chimeric EL with C2 tag (human; mouse) (UniProt Q9WVG5)
T1 sequence: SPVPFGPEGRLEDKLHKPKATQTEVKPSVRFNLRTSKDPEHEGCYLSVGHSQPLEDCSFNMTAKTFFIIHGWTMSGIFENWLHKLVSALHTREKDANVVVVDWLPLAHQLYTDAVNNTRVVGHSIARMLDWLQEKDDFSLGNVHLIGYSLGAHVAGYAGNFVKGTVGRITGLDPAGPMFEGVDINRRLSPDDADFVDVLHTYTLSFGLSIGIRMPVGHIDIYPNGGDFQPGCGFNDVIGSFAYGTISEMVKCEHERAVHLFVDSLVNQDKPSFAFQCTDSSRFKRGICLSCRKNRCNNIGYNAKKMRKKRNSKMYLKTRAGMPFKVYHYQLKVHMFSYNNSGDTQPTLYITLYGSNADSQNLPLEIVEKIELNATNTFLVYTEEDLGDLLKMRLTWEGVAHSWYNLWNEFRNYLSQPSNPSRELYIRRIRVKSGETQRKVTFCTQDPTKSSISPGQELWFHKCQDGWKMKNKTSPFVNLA

T2: human [1-305]-mouse chimeric EL with C2 tag (human; mouse) (UniProt Q9WVG5)
T2 sequence: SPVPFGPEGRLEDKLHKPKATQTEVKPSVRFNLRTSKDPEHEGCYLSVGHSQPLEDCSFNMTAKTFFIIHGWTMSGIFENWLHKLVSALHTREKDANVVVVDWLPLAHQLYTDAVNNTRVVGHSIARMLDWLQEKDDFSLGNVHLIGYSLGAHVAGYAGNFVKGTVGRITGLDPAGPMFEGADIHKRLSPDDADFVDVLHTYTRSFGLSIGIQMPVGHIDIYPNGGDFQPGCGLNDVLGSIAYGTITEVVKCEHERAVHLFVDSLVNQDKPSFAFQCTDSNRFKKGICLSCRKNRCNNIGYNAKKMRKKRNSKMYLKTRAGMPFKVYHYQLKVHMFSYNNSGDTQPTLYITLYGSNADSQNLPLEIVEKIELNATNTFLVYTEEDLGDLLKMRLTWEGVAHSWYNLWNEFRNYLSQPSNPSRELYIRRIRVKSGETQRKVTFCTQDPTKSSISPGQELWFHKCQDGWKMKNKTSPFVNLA

T3: human [202-500]-mouse chimeric EL with C2 tag (mouse; human) (UniProt Q9WVG5)
T3 sequence: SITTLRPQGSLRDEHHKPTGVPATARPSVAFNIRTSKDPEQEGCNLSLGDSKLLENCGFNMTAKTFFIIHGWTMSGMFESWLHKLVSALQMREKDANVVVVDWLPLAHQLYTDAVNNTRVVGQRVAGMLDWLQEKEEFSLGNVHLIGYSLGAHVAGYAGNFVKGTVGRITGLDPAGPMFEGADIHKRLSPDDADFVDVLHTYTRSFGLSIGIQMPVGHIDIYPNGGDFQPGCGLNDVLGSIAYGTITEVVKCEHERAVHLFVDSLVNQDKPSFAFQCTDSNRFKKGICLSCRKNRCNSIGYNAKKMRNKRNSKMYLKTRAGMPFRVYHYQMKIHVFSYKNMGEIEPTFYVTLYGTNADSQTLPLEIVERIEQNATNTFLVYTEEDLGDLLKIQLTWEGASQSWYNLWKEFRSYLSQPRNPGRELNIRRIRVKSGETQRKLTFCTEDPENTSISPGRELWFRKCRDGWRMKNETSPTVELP

B1: 23H8 antibody (antibody, V domains shown)
VH: EVQLQQSGPELLKPGASVKISCKASGYTFTDNTIHWVKQSHGKSLEWIGHINPYYGGTNNNEKFKDKATLTVDKSSSTAYMELRSLTSEDSAIYYCARKGIYYSSPFDYWGQGTTLTVSS
VL: DIQMTQTTSSLSASLGDRVTISCRASQDINNYLNWYQQKPDGTVKLLISYTSKLHSGVPSRFSGSGSGTDYSLTISNLEREDFATYFCQQGNTLPFTFGSGTNLEIK
B2: 13B3 antibody (antibody, V domains shown)
VH: EVQLQQSGPELLKPGASVKISCKASGYTFTEYTMHWVKQSHGKSLEWIGSINPYYGGTSYNEKFKDKATLTVDKSSNTAYMEFRSLTSEDCAVYYCARYGNYVGYFDYWGQGTTLTVSS
VL: ENVLTQSPAIMSASLGEKVTMSCRASSSVHYMYWYQQKSDASPKLWIYYTSNLAPGVPDRFSGSGSGNSYSLTISSMEGEDAATYYCQQFTSSPYTFGGGTKLEIK
B3: 7D4 antibody (antibody, V domains shown)
VH: QIQLVQSGPELKKPGETVKISCKASGYTFTNYGMNWVKQAPGKDLKWMGWINTYSGVPTYADDFKGRFAFSLETSASTAYLQINNLKNEDTATYFCARFSYYGRHYFDYWGQGTTLTVSS
VL: DIVLTQSPASLAVSLGQRATISCKASQSVDYDGDSYMNWYQQKPGQPPQLLIYAASNLGSGIPARFSGSGSGTDFTLNIHPVEEEDAATYYCHQSTDDPPWTFGGGTKLEIK
B4: 55A1 antibody (antibody, V domains shown)
VH: B3 VH with Q3H, D44G, D62G, F99R, S100G, H105R, Y109V, Q112T, L116V
VL: DIVLTQSPASLAVSLGQRATISCKASQSVDYDVDSYMHWYQQKPGQPPKLLIYAASNLASGIPARFSGGGSGTDFTLNIHPVEEEDVATYYCQQTIEDPPTFGGGTKLEIK
B5: 14A1 antibody (antibody, V domains shown)
VH: B3 VH with D44G, L86F, T115A, V118A
VL: B3 VL with Q49K, G59K, H93Q, S95T
B6: 53A11 antibody (antibody, V domains shown)
VH: EVQLQQSGPELLKPGASVKISCKASGYTFTDYTMHWVKQSHGKSLEWIGGINPYYGGTTYNEKFKDKATLTVDKSSSTAYMELRSLTSEDSAVYYCAKGDYYGGSYNYWGQGTTLTVSS
VL: DIVLTQSLATLSVTPGDSVSLSCRASQDISNSLHWYQQKSHESPRLLIKYASQSISGIPSRFSGSGSGTDFTLSINSVETEDFGMYFCQQSNSWPYTFGGGTKLEIK
B7: 19E7 antibody (antibody, V domains shown)
VH: QVQLQQPGSVLVRPGASVKLSCKASGYTFTTYWMHWVKQRPGQGLEWIGEIHPYSGNNNNNEKFKGKATLTVDTSSSTAYVDLSRLTSEDSAVYYCARYDSNYVFAYWGQGTLVTVSA
VL: QIVLTQSPAIMSASPGEGVTITCSASSSVSYMHWFQQKPGTSPKLWIYSTSNLASGVPARFSGSGSGTSYSLTISRMEAEDAATYYCQQRDSYLTFGSGTKLEVK
B8: 16B3 antibody (antibody, V domains shown)
VH: DVKLVESGGGLVQPGGSLKLSCTASGFTFSGYTMSWVRQTPEKRLELVAEISFARDRAFYPDTVKGRFTISRDNAKNTLYLQMSSLKSEDTAMYYCTRLGGRNHDYWYFDVWGTGTTVTVSS
VL: DIVLTQSPTSLAVSPGQRATISCRASESVEYYGTSLMQWYQQKPGQRPQLLIYAASNVESGVPARFSGSGSGTDFSLNIHPVEEDDIAVYFCQQSWKVPFTFGSGTKLEIK
B9: 16E7 antibody (antibody, V domains shown)
VH: B8 VH with D1E, T23A, G31S, A54T, D56S, T97A, R102N, H104Y
VL: B8 VL with P15L, Q49K, V89M
B10: 14E1 antibody (antibody, V domains shown)
VH: QVQLQQSGAELVKPGASVRLSCKASGYTFTKYTIHWVKQRSGQGLEWIGWFYPGSDSIKYNEKFKDKATLTADKSSRTVYMELSRLTSEDSAVYFCARHEEYTNSLAYWGQGTLVTVSA
VL: B1 VL with N30S, K39Q, S49Y, K53R, R80Q, F83I, N92Y, F96W, S100G

Target: T1, human [1-157]-mouse chimeric EL with C2 tag (human; mouse)
Test: ELISA: antibody captured on anti-mouse IgG-Fc plate, C2-tagged EL heparin extract added, anti-C2-tag detection, A450 (Example 8)

EC50 (read off the curve) [ng/mL] | Binder
4 | B1
4 | B2
6 | B3
4 | B4
7 | B5
6 | B6

Target: T2, human [1-305]-mouse chimeric EL with C2 tag (human; mouse)
Test: as above

EC50 (read off the curve) [ng/mL] | Binder
6 | B7

Target: T3, human [202-500]-mouse chimeric EL with C2 tag (mouse; human)
Test: as above

EC50 (read off the curve) [ng/mL] | Binder
4 | B8
8 | B9
20 | B10
